Positions count from the first letter of the chain named. One block for each binder: values may come before it.
Experiments:
monkey GPC3-His protein [1] = target: T1, monkey GPC3-His protein (monkey); experiment: ELISA, monkey GPC3-His coated;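 further: Plate-coated antigen at 1 µg/mL, antibody binding 2 h at 37 °C, detected with HRP-labeled secondary antibody and TMB, absorbance at 450 nm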
T1 construct: Bought recombinant protein; also called monkey GPC3 protein

human GPC3-His protein = target: T2, human GPC3-His protein (human, UniProt P51654 25-559); experiment: SPR, antibody captured on Protein A chip, human GPC3-His analyte;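 further: measured at 25 °C flow cell, human GPC3-His injected at five concentrations up to 200 nM, 240 s association, up to 600 s dissociation, double-referenced, fitted to Langmuir 1:1 model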
T2 construct: also called human GPC3 protein; not shown: His tag

monkey GPC3-His protein [2] = target: T1, monkey GPC3-His protein; experiment: SPR, antibody captured on Protein A chip, monkey GPC3-His analyte;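 further: run at 25 °C with 240 s association and up to 600 s dissociation, double-referenced, kinetics fitted to a 1:1 Langmuir binding model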
Protocol: The flow cell was set at 25° C. The sample block was set at 16° C. Both were pretreated with the running buffer. In each cycle, first, the antibody to be tested was captured using the Protein A chip, and then a single concentration of GPC3 antigen protein was injected. […] The association was determined by injecting different concentrations of human GPC3-His in the solution and maintaining for 240 s, wherein the flow rate was 30 μL/min, and the protein was diluted at a 1:1 dilution ratio from 200 nM to obtain 5 concentrations in total. The dissociation phase was monitored for up to 600 s and triggered by switching from the sample solution to the running buffer. The surface was regenerated by washing with 10 mM glycine solution (pH 1.5) at a flow rate of 30 μL/min for 30 s. The difference in bulk refractive index was corrected by subtracting the responses obtained from the goat anti-human Fc surface. Blank injections (double reference) were also subtracted. To calculate the apparent KD and other kinetic parameters, the Langmuir 1:1 model was used.

[3] = target: T3, monkey GPC3 on HEK293T-monkey GPC3 cells (monkey); experiment: FACS on HEK293T-monkey GPC3 cells;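 further: flow cytometry binding of test antibodies to the cells, read as mean fluorescence intensity, with half-maximal concentration taken from fitted curves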
T3 construct: whole, on cells
Protocol: The desired cells were expanded to a logarithmic growth phase in a T-75 cell culture flask, the medium was removed by pipetting, and the cells were washed twice with a PBS buffer, and digested with trypsin. Then a complete medium was added to stop the digestion, and the cells were blown into a single cell suspension. After counting, the cells were centrifuged, and the cell pellet was resuspended with an FACS buffer (PBS+2% fetal bovine serum) to 2×10⁶ cells/mL. The cell resuspension solution was added to a 96-well FACS reaction plate at 50 μl/well, and a chimeric antibody sample to be tested was added at 50 μl/well for incubation at 4° C. for 1 h. […] After the plate was centrifuged and washed 3 times with a PBS buffer, 100 μl of the resulting solution was assayed and analyzed by FACS (FACS Canto™, purchased from BD Biosciences). Data analysis was performed by software (FlowJo) to obtain the mean fluorescence intensity (MFI) of the cells. Then, analysis was performed by software (GraphPad Prism8), data were fitted, and EC₅₀ values were calculated.

B2: F1.83.6 (antibody, human IgG1, kappa, V domains shown)
VH: QVQLQQSGPELVKPGASVKISCKASGYAFSSSWMNWVKQRPGKGLEWIGRIYPGDGDTNYNGRFKGKATLTVDKSSSTAYMQLSSLTSEDSAVYFCARGGVFTMALDHWGQGTTLTVSS
VL: DIQMTQSPSSLSASLGGKVTITCKASQDINKYIAWYQHKPGKGPRLLIHYTSTLQPGIPSRFSGSGSGRDYSFSISNLEPEDIATYYCLQYDNLFTFGGGTKLEIKR
notes: Human-murine chimeric antibody
OD450 at 0.0001 nM (monkey GPC3-His protein [1]): 0.05 OD450 | OD450 at 0.001 nM (monkey GPC3-His protein [1]): 0.05 OD450 | OD450 at 0.01 nM (monkey GPC3-His protein [1]): 0.08 OD450 | OD450 at 0.1 nM (monkey GPC3-His protein [1]): 0.43 OD450 | OD450 at 1 nM (monkey GPC3-His protein [1]): 0.62 OD450 | OD450 at 10 nM (monkey GPC3-His protein [1]): 0.32 OD450 | OD450 at 100 nM (monkey GPC3-His protein [1]): 0.55 OD450 | Kd (human GPC3-His protein): 5.88 nM | koff (human GPC3-His protein): 0.000493 s⁻¹ | kon (human GPC3-His protein): 83900 M⁻¹ s⁻¹ | Kd (monkey GPC3-His protein [2]): 3.4 nM | koff (monkey GPC3-His protein [2]): 0.000503 s⁻¹ | kon (monkey GPC3-His protein [2]): 148000 M⁻¹ s⁻¹ | EC50 [3]: 0.53 nM | Max MFI [3]: 5880 MFI

B3: F1.78.24 (antibody, human IgG1, kappa, V domains shown)
VH: QVQLQQSGAELVKPGASVKMSCKASGYTFTTYPIEWMKQNHGKSLEWIGNFHPYNDDTNYNVKFKGKATLTVEKSSSTVYLELSRLTSDDSALYYCARRREYYGSFDVWGTGTTVTVSS
VL: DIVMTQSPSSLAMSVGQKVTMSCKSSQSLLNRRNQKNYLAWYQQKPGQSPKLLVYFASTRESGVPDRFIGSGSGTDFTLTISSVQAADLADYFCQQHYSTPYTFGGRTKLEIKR
notes: as for B2
OD450 at 0.0001 nM (monkey GPC3-His protein [1]): 0.05 OD450 | OD450 at 0.001 nM (monkey GPC3-His protein [1]): 0.06 OD450 | OD450 at 0.01 nM (monkey GPC3-His protein [1]): 0.17 OD450 | OD450 at 0.1 nM (monkey GPC3-His protein [1]): 0.55 OD450 | OD450 at 1 nM (monkey GPC3-His protein [1]): 0.73 OD450 | OD450 at 10 nM (monkey GPC3-His protein [1]): 0.21 OD450 | OD450 at 100 nM (monkey GPC3-His protein [1]): 0.37 OD450 | Kd (human GPC3-His protein): 7.06 nM | koff (human GPC3-His protein): 0.00075 s⁻¹ | kon (human GPC3-His protein): 106000 M⁻¹ s⁻¹ | Kd (monkey GPC3-His protein [2]): 3.26 nM | koff (monkey GPC3-His protein [2]): 0.000639 s⁻¹ | kon (monkey GPC3-His protein [2]): 196000 M⁻¹ s⁻¹ | EC50 [3]: 0.33 nM | Max MFI [3]: 6580 MFI

B4: F1.2.14 (antibody, human IgG1, kappa, V domains shown)
VH: RVQLQQSGAELVKPGASVRMSCKASGYTFTAYSIEWMKQNLGKSLEWIGNFRPYNDDTKYNENFKGRATLTVEKSSATVYLELSRLTSDDSAVYYCARSGPTDYFDYWGQGTTLIVSS
VL: DIQMTQSPASLSASVGETVTITCRASDNIYSYLAWYQQKQGQSPQLLVYNAKTLAEGVPSRFSGSGSVTQFSLKIISLQPEDFGTYYCQHHFGTPRTFGGGTKLEIKR
notes: as for B2
OD450 at 0.0001 nM (monkey GPC3-His protein [1]): 0.05 OD450 | OD450 at 0.001 nM (monkey GPC3-His protein [1]): 0.05 OD450 | OD450 at 0.01 nM (monkey GPC3-His protein [1]): 0.07 OD450 | OD450 at 0.1 nM (monkey GPC3-His protein [1]): 0.27 OD450 | OD450 at 1 nM (monkey GPC3-His protein [1]): 0.86 OD450 | OD450 at 10 nM (monkey GPC3-His protein [1]): 1.03 OD450 | OD450 at 100 nM (monkey GPC3-His protein [1]): 1.55 OD450 | Kd (human GPC3-His protein): 2.37 nM | koff (human GPC3-His protein): 0.00017 s⁻¹ | kon (human GPC3-His protein): 71600 M⁻¹ s⁻¹ | Kd (monkey GPC3-His protein [2]): 1.25 nM | koff (monkey GPC3-His protein [2]): 0.000156 s⁻¹ | kon (monkey GPC3-His protein [2]): 125000 M⁻¹ s⁻¹ | EC50 [3]: 1.1 nM | Max MFI [3]: 4740 MFI

Now from value to binder:

OD450 at 0.0001 nM (monkey GPC3-His protein [1]): 0.05 OD450 | OD450 at 0.001 nM (monkey GPC3-His protein [1]): 0.05 OD450 | OD450 at 0.01 nM (monkey GPC3-His protein [1]): 0.06 OD450 | OD450 at 0.1 nM (monkey GPC3-His protein [1]): 0.29 OD450 | OD450 at 1 nM (monkey GPC3-His protein [1]): 0.31 OD450 | OD450 at 10 nM (monkey GPC3-His protein [1]): 0.47 OD450 | OD450 at 100 nM (monkey GPC3-His protein [1]): 0.41 OD450 | Kd (human GPC3-His protein): 2.5 nM | koff (human GPC3-His protein): 0.000362 s⁻¹ | kon (human GPC3-His protein): 145000 M⁻¹ s⁻¹ | Kd (monkey GPC3-His protein [2]): 1.38 nM | koff (monkey GPC3-His protein [2]): 0.000342 s⁻¹ | kon (monkey GPC3-His protein [2]): 248000 M⁻¹ s⁻¹ | EC50 [3]: 0.42 nM | Max MFI [3]: 5560 MFI
B1: F1.110.24 (antibody, human IgG1, kappa, V domains shown)
VH: EVKLVESGGGLVQPGGSLKLSCAASGFTFSDFYMYWVRQTPEKRLEWVAFISNGGGSTYYPDTVKGRFTISRDNVKNTLYLQMSRLKSEDTAMYYCARPDTSWFAYWGQGSLVTVSA
VL: DIQMTQTTSSLSASLGDRVTISCRASQDIDNYLNWYQQKPDGTVKVLISYTSRLHSGVPSRFSGSGSGTDYSLTISNLEQEDIATYFCQQGNTLPWTFGGGTKLEIKR
notes: as for B2

OD450 at 0.0001 nM (monkey GPC3-His protein [1]): 0.05 OD450 | OD450 at 0.001 nM (monkey GPC3-His protein [1]): 0.06 OD450 | OD450 at 0.01 nM (monkey GPC3-His protein [1]): 0.14 OD450 | OD450 at 0.1 nM (monkey GPC3-His protein [1]): 0.77 OD450 | OD450 at 1 nM (monkey GPC3-His protein [1]): 1.68 OD450 | OD450 at 10 nM (monkey GPC3-His protein [1]): 2.15 OD450 | OD450 at 100 nM (monkey GPC3-His protein [1]): 2.3 OD450 | Kd (human GPC3-His protein): 21.3 nM | koff (human GPC3-His protein): 0.00278 s⁻¹ | kon (human GPC3-His protein): 131000 M⁻¹ s⁻¹ | Kd (monkey GPC3-His protein [2]): 13 nM | koff (monkey GPC3-His protein [2]): 0.00306 s⁻¹ | kon (monkey GPC3-His protein [2]): 236000 M⁻¹ s⁻¹ | EC50 [3]: 0.77 nM | Max MFI [3]: 5380 MFI
B5: F1.57.21 (antibody, human IgG1, kappa, V domains shown)
VH: QVQLQQSGAELARPGASVKLSCKASGYTFTSYGISWVKQITGQGLEWIGEIYPRSESTYYNEKFKGKATLTADKSSSTAYMELRSLTSEDSAVYFCARDYGNIYSFAYWGQGTLVTVSA
VL: B4 VL with A25T, D27E, Q42K, V68G, I76N, T85S, F92Y, R96L, G100A, I106L
notes: as for B2

OD450 at 0.0001 nM (monkey GPC3-His protein [1]): 0.05 OD450 | OD450 at 0.001 nM (monkey GPC3-His protein [1]): 0.05 OD450 | OD450 at 0.01 nM (monkey GPC3-His protein [1]): 0.06 OD450 | OD450 at 0.1 nM (monkey GPC3-His protein [1]): 0.15 OD450 | OD450 at 1 nM (monkey GPC3-His protein [1]): 0.64 OD450 | OD450 at 10 nM (monkey GPC3-His protein [1]): 0.62 OD450 | OD450 at 100 nM (monkey GPC3-His protein [1]): 0.58 OD450 | Kd (human GPC3-His protein): 7.46 nM | koff (human GPC3-His protein): 0.00017 s⁻¹ | kon (human GPC3-His protein): 22800 M⁻¹ s⁻¹ | Kd (monkey GPC3-His protein [2]): 5.07 nM | koff (monkey GPC3-His protein [2]): 0.000139 s⁻¹ | kon (monkey GPC3-His protein [2]): 27400 M⁻¹ s⁻¹ | EC50 [3]: 2.26 nM | Max MFI [3]: 5520 MFI
B6: F1.92.17 (antibody, human IgG1, kappa, V domains shown)
VH: EVQLQQSGPELVKPGASVKMSCKASGYTFTDYNMHWVRQSHGKSLEWIGYINPNNGDTIYNQNFKGKATLTVNKSSSTAYMELRSLTSEDSAVYYCSRTITYYYSMDYWGPGTSVTVSS
VL: QIVLTQSPALMSASPGEKVTMTCSASSSVSYMYWYQQKPRSSPKPWIYLTSNLASGVPARFSGSGSGTSYSLTISSMEAEDAATYYCQQWSSNPLTFGAGTKLELKR
notes: as for B2
